Results taken from patent US20190184026A1.

Tests used:
Experiment in all cases: cell-based or functional assay
[1] = target: CD3 (on T cells of human PBMCs) (human)
[2] = target: human GLP-1R (human) (UniProt P43220)
[3] = target: lactating receptors of the Nb2 cells (rat) (UniProt P05710)
Sequence of lactating receptors of the Nb2 cells (rat) (P05710 20-610): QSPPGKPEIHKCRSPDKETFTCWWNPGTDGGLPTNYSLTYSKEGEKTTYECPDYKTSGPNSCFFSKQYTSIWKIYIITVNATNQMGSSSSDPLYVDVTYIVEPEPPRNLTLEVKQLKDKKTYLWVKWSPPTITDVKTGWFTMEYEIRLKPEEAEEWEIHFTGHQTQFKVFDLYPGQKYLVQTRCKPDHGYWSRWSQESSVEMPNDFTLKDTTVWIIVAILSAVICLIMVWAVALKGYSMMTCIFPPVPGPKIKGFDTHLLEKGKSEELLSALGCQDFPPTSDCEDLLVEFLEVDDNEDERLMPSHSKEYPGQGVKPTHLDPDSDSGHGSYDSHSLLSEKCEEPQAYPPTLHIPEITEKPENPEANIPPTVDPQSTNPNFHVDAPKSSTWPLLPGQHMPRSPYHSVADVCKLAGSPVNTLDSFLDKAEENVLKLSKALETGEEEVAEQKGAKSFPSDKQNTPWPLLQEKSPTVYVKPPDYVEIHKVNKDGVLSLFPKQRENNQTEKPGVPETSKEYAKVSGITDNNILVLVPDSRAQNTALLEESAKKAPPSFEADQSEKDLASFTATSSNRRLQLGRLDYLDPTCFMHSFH

Sequence of human GLP-1R (human) (P43220 24-463): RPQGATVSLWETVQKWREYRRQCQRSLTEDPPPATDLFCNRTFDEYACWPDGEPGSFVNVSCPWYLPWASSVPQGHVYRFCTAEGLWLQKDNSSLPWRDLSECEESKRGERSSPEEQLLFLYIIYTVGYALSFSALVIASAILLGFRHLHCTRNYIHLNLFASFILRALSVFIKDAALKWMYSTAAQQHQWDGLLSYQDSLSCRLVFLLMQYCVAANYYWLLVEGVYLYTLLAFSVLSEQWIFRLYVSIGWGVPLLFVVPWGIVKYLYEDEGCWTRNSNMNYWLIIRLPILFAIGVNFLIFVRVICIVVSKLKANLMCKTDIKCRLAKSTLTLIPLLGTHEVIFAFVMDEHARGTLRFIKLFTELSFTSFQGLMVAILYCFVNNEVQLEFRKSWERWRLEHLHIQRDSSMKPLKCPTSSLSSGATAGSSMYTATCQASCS

anti-CD3 monoclonal antibody OKT3
EC50 of activation of human PBMCs (CCK-8, absorbance at 492 nM) [1]: 0.015 nM

duraglutide (Eli Lilly, Cat. No. 9301897) (Fc fusion)
in vitro activity EC50 (CRE-Luc reporter, CHO-K1 cells with human GLP-1R) [2]: 0.0299 nM

hGH (from UniProt P01241 27-217) (ligand)
EC50 (Nb2 cell proliferation, CCK-8) [3]: 0.00694 nM
